Assay [1] addresses T1, human SLC34A2 (human, UniProt O95436 1-690).
T1 sequence (looked up): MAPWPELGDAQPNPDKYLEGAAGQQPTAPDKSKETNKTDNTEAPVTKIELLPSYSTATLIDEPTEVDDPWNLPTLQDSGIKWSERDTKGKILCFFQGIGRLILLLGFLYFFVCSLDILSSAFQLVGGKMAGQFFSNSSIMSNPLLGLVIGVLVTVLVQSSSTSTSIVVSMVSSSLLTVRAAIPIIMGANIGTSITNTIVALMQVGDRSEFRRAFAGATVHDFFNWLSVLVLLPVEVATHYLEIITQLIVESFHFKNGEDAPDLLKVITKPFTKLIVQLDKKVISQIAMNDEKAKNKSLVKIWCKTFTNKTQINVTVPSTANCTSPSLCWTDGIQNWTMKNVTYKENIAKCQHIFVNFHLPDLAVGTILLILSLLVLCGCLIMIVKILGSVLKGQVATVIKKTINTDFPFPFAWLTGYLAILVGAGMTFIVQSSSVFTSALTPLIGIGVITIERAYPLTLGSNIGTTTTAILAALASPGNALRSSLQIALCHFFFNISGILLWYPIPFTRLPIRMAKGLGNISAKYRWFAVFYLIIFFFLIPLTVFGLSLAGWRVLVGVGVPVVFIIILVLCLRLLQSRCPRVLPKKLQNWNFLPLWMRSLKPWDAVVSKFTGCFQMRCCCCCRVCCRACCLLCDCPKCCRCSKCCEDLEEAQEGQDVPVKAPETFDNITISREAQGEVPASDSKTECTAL
The assay is described as follows: FACS, OVCAR3 cells.

The target in assay [2] is T1, human SLC34A2. As to the kind of experiment: FACS, RMG-1 cells. The procedure, abridged: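 Flow-cytometric binding of chimeric antibodies (8-point, 4-fold dilutions from 200 nM) to RMG-1 cells, 60 min at 4° C, followed by fluorescent secondary antibody for 30 min at 4° C.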
In assay [3] the target is T1, human SLC34A2. The assay is described as follows: FACS, OVCAR3 cells. Summed up:
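Flow cytometry binding: cells (OVCAR3, or HEK293 transfected with human SLC34A2) exposed 60 min at 4° C to chimeric hIgG1, 8-point 4-fold series starting 200 nM. Washed, stained 30 min at 4° C with fluorescent anti-human secondary, then analysed.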

In assay [4] the target is T2, Rhesus SLC34A2 (Rhesus, UniProt F7HDA3 1-690).
T2 construct: whole, on cells
T2 sequence: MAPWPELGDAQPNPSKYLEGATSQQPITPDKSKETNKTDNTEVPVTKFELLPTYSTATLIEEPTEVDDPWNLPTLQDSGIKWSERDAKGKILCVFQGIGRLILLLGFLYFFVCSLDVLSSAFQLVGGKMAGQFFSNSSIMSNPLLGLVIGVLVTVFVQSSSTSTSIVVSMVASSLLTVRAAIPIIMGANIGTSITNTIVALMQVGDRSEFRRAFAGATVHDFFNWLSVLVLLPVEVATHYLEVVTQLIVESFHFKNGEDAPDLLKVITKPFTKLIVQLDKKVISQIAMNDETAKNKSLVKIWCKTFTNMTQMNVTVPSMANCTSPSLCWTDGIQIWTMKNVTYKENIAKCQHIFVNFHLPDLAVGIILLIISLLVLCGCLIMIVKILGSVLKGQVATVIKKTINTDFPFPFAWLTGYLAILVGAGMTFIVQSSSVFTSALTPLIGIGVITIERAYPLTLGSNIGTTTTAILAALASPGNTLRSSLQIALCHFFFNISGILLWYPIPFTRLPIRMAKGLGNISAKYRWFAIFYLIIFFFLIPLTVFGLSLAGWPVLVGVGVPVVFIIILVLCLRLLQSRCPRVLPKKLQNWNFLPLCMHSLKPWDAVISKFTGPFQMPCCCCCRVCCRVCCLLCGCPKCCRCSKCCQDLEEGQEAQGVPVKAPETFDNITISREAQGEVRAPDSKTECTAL
The assay is described as follows: FACS, HEK293/Rhesus SLC34A2 cells.

The target in assay [5] is T1, human SLC34A2. As to the kind of experiment: cell-based or functional assay.
Assay [6] deals with T1, human SLC34A2. The assay is described as follows: cell-based or functional assay. This is another data set of the same source.
For assay [7], the target named is T1, human SLC34A2. As to the kind of experiment: FACS, HEK293/human SLC34A2 cells. As to the method: Briefly, OVCAR3 cells or HEK293 cells expressing human SLC34A2 were incubated with chimeric antibodies (from 200 nM, 4 folds dilution, 8 points). After incubation at 4° C. for 60 minutes, the cells were washed with FACS buffer twice, then stained with fluorescent conjugated secondary antibody at 4° C. for 30 minutes. After that the cells were washed twice and analyzed by flow cytometry.

Assay [8] has as its target T1, human SLC34A2. The assay is described as follows: FACS, RMG-1 cells. Summed up: (§1)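 Cell-surface binding by flow cytometry: hu Abs on SLC34A2-expressing cells, 60 min at 4° C.; 2× FACS buffer wash; fluorescent-conjugated secondary 30 min at 4° C.; 2× wash, then acquisition.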
The source holds these as a separate data set.

The target of assay [9] is T1, human SLC34A2. The assay is described as follows: FACS, OVCAR3 cells. The source holds these as a separate data set.
Assay [10] deals with T1, human SLC34A2. As to the kind of experiment: FACS, OVCAR3 cells. The source holds these as a separate data set.
The target in assay [11] is T1, human SLC34A2. As to the kind of experiment: FACS, OVCAR3 cells. The procedure, abridged:
as §1
This is another data set of the same source.

The target in assay [12] is T1, human SLC34A2. The assay is described as follows: cell-based or functional assay. The source holds these as a separate data set.
The target of assay [13] is T1, human SLC34A2. As to the kind of experiment: FACS, HEK293/human SLC34A2 cells. As to the method:
The PTM-derisked VH chains were first tested for their impact on target binding. Cell based binding of PTM Abs on human SLC34A2 expressing cells were assessed using flow cytometry. Briefly, the HEK293/H_SLC34A2 cells were incubated with PTM Abs (from 200 nM, 4 folds dilution, 8 points). After incubation at 4° C. for 60 minutes, the cells were washed with FACS buffer twice, then stained with fluorescent conjugated secondary antibody at 4° C. for 30 minutes. After that the cells were washed twice and analyzed by flow cytometry.
The source holds these as a separate data set.

In assay [14] the target is T1, human SLC34A2. The assay is described as follows: FACS, HEK293/human SLC34A2 cells. Summed up: as §1
The source holds these as a separate data set.

The target in assay [15] is T2, Rhesus SLC34A2. As to the kind of experiment: FACS, HEK293/Rhesus SLC34A2 cells. This is another data set of the same source.
Assay [16] has as its target T2, Rhesus SLC34A2. As to the kind of experiment: FACS, HEK293/Rhesus SLC34A2 cells. The source holds these as a separate data set.
The target in assay [17] is T1, human SLC34A2. The assay is described as follows: FACS, OVCAR3 cells. This is another data set of the same source.

Like-named read-outs stand apart in the source and are kept apart here.

In the assay with human SLC34A2 [1], hIgG1 Isotype (antibody) came in with an EC50 of 2900 nM and a Top (MFI) of 1570 MFI.

B1: xi71F7D4 hIgG1 (antibody, V domains shown)
VH: DVKLVESGGDLVKLGGSLKLSCAASGFTFSNYYMSWVRQTPEKRLELVAVINSNGGTTYYPDNMKGRFTISRDNAKNTLYLQTSSLKSEDTALYYCGRHEHYYGTNIAWFAYWGQGTLVTVSA
VL: DIVMTQSHKFMSTSVGDRVSITCKASQDVTTAVAWYQQKPGQSPKLLIYWASTRHTGVPDRFTGSGSGTDHTLTISSVQAEDLALYYCQQHYSTPVTFGGGTKLEIK
notes: chimeric, hIgG1
For the molecule B1, in the assay with human SLC34A2 [2], the EC50 stood at 8.36 nM and the “Top (MFI)” value turned out to be 10200 MFI. Besides, in the assay with human SLC34A2 [3], the EC50 stood at 7.86 nM and the “Top (MFI)” value worked out at 28900 MFI. The Top (MFI) in the assay with Rhesus SLC34A2 [4] was determined as 5.4e+06 MFI. In addition, in the assay with human SLC34A2 [5], the “ADCC reporter EC50” value was 3.6 nM and the “ADCC reporter Top (MFI)” value was 247000 MFI. In addition, in the assay with human SLC34A2 [6], the “cytotoxicity EC50” value was determined as 0.83 nM and the “cytotoxicity Inhibition %” value was determined as 99.4%. Also, in the assay with human SLC34A2 [7], the EC50 worked out at 2.11 nM and the “Top (MFI)” value was determined as 47900 MFI.

B2: 63A11D5B4 VH_P1/VL hIgG1 (antibody, V domains shown)
VH: QVQLQQPGAELVKPGASVKMSCRTSGYTFITYNMHWVKQTPGQGREWIGAIYPGSGDTSYNQKFKGKATLTADKSSSTAYMQLNSLTSEDSAVYYCSISTIITTGAVDYWGQGTSVTVAS
VL: DIVMTQSHKFMSTSVGDRVSITCKASQDVGTAVAWYQQKAGQSPKLLIYWTSTRHTGVPDRFTGSGSGTDFTLIIRSLQSEDLADYFCQQYSRIPLTFGSGTKLEIK
notes: PTM-derisked chimeric, hIgG1; that P1 is the SG version follows from the humanized .p1 chains; also called 63A11D5B4.p1 hIgG1
Consider B2, for which the EC50 turned out to be 12.5 nM in the assay with human SLC34A2 [8]; 7.5 nM with human SLC34A2 [9]; 4.03 nM with human SLC34A2 [10]; 4.03 nM with human SLC34A2 [11]; 1.48 nM in the assay with human SLC34A2 [13]; 2.79 nM with human SLC34A2 [14]. For the same molecule, the values for the EC50 in the assay with Rhesus SLC34A2 [15] and with Rhesus SLC34A2 [16] were 3.9 nM and 0.7 nM, respectively. Moreover, the Top with human SLC34A2 [8] came out at 11700 MFI; in the assay with human SLC34A2 [14], 35600 MFI. Further, the “Top (MFI)” value with human SLC34A2 [9] is 75200 MFI; with human SLC34A2 [10], 28200 MFI; with human SLC34A2 [13], 30400 MFI; in the assay with Rhesus SLC34A2 [15], 39400 MFI; with Rhesus SLC34A2 [16] it was 13800 MFI. The “ADCC reporter EC50” value with human SLC34A2 [12] came to 2.83 nM. Moreover, the “ADCC reporter Top (MFI)” value in the assay with human SLC34A2 [12] was determined as 114000 MFI.

B3: 91C9F1.p1 hIgG1 (antibody, V domains shown)
VH: EVQLQQSGPELVKPGTSVKISCKTSGFFFTEYIIHWVKQSHGRSLEWIGGIIPNNDVTNYKQNFRGKAALTADKSSNTAYMELRSLTSEDSAVYYCARWRNAYYSAMDSWGQGTSVTVSS
VL: DIVVTQSHKFMSTSLGDRVSITCTASQDVGTAVAWYQQKPGHSPKLLIYWASTRHTGVPERFTGSGSGTDFTLTITNVQSEDLADYFCQQYRTSPLTFGVGTKLELK
notes: PTM-derisked chimeric, hIgG1; also called 91C9F1.pl hIgG1
In the case of B3, the EC50 with human SLC34A2 [8] amounted to 1.09 nM; in the assay with human SLC34A2 [9], 1 nM; with human SLC34A2 [17] it was 2.29 nM; with human SLC34A2 [11], 1.1 nM; with human SLC34A2 [13] it was 0.68 nM; with human SLC34A2 [14], 2.29 nM. The EC50 was 2.8 nM in the assay with Rhesus SLC34A2 [15] and 0.8 nM with Rhesus SLC34A2 [16]. For the same molecule, the Top with human SLC34A2 [8] worked out at 9690 MFI; with human SLC34A2 [11], 19500 MFI; in the assay with human SLC34A2 [14], 32300 MFI. In addition, the “Top (MFI)” value was 63500 MFI with human SLC34A2 [9]; 32300 MFI in the assay with human SLC34A2 [17]; 28200 MFI with human SLC34A2 [13]; 26400 MFI in the assay with Rhesus SLC34A2 [15]; 7970 MFI in the assay with Rhesus SLC34A2 [16]. In addition, the “ADCC reporter EC50” value in the assay with human SLC34A2 [12] stood at 3.31 nM. Also, the “ADCC reporter Top (MFI)” value with human SLC34A2 [12] stood at 143000 MFI.
